Measured values as given in paper PMC12697964.

Target: N-terminal region deleted seYdjB-like protein (amino acid from 35 to 162) (Salmonella enterica)
Experiment: SEC-MALS; Superdex 75 10/300 GL, SEC buffer (20 mM Tris-HCl pH 8.0, 150 mM NaCl), 0.6 mL/min; three-angle light scattering and refractive index detectors; BSA as reference

N-terminal region deleted seYdjB-like protein (amino acid from 35 to 162) (domain or fragment)
stoichiometry N: 2
